{
  "source": "patent US20220308072A1",
  "key": {"[1]": {"biological_target": "Recombinant, his tagged full length human frataxin protein (Abcam ab95502) (human) (UniProt Q16595)", "sequence (Q16595 42-210)": "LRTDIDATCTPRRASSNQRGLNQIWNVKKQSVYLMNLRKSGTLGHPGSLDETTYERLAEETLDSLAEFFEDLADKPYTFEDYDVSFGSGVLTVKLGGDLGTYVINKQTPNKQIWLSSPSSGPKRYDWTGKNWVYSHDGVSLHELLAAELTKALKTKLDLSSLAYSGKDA", "assay": "Simoa sandwich 3-step; capture Ab-2; frataxin 10000 pg/mL"}, "[2]": {"biological_target": "Recombinant, his tagged full length human frataxin protein (Abcam ab95502) (human) (UniProt Q16595)", "assay": "Simoa sandwich 2-step; capture Ab-3"}, "[3]": {"biological_target": "Recombinant, his tagged full length human frataxin protein (Abcam ab95502) (human) (UniProt Q16595)", "assay": "Simoa sandwich 3-step; capture Ab-2; frataxin 1000 pg/mL"}, "[4]": {"biological_target": "Recombinant, his tagged full length human frataxin protein (Abcam ab95502) (human) (UniProt Q16595)", "assay": "Simoa sandwich 2-step; capture Ab-3; frataxin 1000 pg/mL"}, "[5]": {"biological_target": "Recombinant, his tagged full length human frataxin protein (Abcam ab95502) (human) (UniProt Q16595)", "assay": "Simoa sandwich 3-step; capture Ab-2"}, "[6]": {"biological_target": "Recombinant, his tagged full length human frataxin protein (Abcam ab95502) (human) (UniProt Q16595)", "assay": "Simoa sandwich 3-step; capture Ab-1; frataxin 10000 pg/mL"}, "[7]": {"biological_target": "Recombinant, his tagged full length human frataxin protein (Abcam ab95502) (human) (UniProt Q16595)", "assay": "Simoa sandwich 3-step; capture Ab-3; frataxin 100 pg/mL"}, "[8]": {"biological_target": "Recombinant, his tagged full length human frataxin protein (Abcam ab95502) (human) (UniProt Q16595)", "assay": "Simoa sandwich 2-step; capture Ab-3; frataxin 500 pg/mL"}, "[9]": {"biological_target": "Recombinant, his tagged full length human frataxin protein (Abcam ab95502) (human) (UniProt Q16595)", "assay": "Simoa sandwich 2-step; capture Ab-3; frataxin 167 pg/mL"}, "[10]": {"biological_target": "Recombinant, his tagged full length human frataxin protein (Abcam ab95502) (human) (UniProt Q16595)", "assay": "Simoa sandwich 2-step; capture Ab-3; frataxin 18.5 pg/mL"}, "[11]": {"biological_target": "Recombinant, his tagged full length human frataxin protein (Abcam ab95502) (human) (UniProt Q16595)", "assay": "Simoa sandwich 3-step; capture Ab-1; frataxin 1000 pg/mL"}, "[12]": {"biological_target": "Recombinant, his tagged full length human frataxin protein (Abcam ab95502) (human) (UniProt Q16595)", "assay": "Simoa sandwich 3-step; capture Ab-1; frataxin 100 pg/mL"}, "[13]": {"biological_target": "Recombinant, his tagged full length human frataxin protein (Abcam ab95502) (human) (UniProt Q16595)", "assay": "Simoa sandwich 3-step; capture Ab-4; frataxin 10000 pg/mL"}, "[14]": {"biological_target": "Recombinant, his tagged full length human frataxin protein (Abcam ab95502) (human) (UniProt Q16595)", "assay": "Simoa sandwich 3-step; capture Ab-5; frataxin 1000 pg/mL"}, "[15]": {"biological_target": "Recombinant, his tagged full length human frataxin protein (Abcam ab95502) (human) (UniProt Q16595)", "assay": "Simoa sandwich 3-step; capture Ab-4; frataxin 100 pg/mL"}, "[16]": {"biological_target": "Recombinant, his tagged full length human frataxin protein (Abcam ab95502) (human) (UniProt Q16595)", "assay": "Simoa sandwich 3-step; capture Ab-3"}, "[17]": {"biological_target": "Recombinant, his tagged full length human frataxin protein (Abcam ab95502) (human) (UniProt Q16595)", "assay": "Simoa sandwich 3-step; capture Ab-1"}, "[18]": {"biological_target": "Recombinant, his tagged full length human frataxin protein (Abcam ab95502) (human) (UniProt Q16595)", "assay": "Simoa sandwich 2-step; capture Ab-3; frataxin 55.6 pg/mL"}, "[19]": {"biological_target": "Recombinant, his tagged full length human frataxin protein (Abcam ab95502) (human) (UniProt Q16595)", "assay": "Simoa sandwich 2-step; capture Ab-3; frataxin 6.17 pg/mL"}, "[20]": {"biological_target": "Recombinant, his tagged full length human frataxin protein (Abcam ab95502) (human) (UniProt Q16595)", "assay": "Simoa sandwich 3-step; capture Ab-5"}, "[21]": {"biological_target": "Recombinant, his tagged full length human frataxin protein (Abcam ab95502) (human) (UniProt Q16595)", "assay": "Simoa sandwich 2-step; capture Ab-3", "remark": "listed apart in the source"}, "[22]": {"biological_target": "Recombinant, his tagged full length human frataxin protein (Abcam ab95502) (human) (UniProt Q16595)", "assay": "Simoa sandwich 3-step; capture Ab-3; frataxin 100 pg/mL", "remark": "listed apart in the source"}, "[23]": {"biological_target": "Recombinant, his tagged full length human frataxin protein (Abcam ab95502) (human) (UniProt Q16595)", "assay": "Simoa sandwich 2-step; capture Ab-3; frataxin 0.686 pg/mL"}, "[24]": {"biological_target": "Recombinant, his tagged full length human frataxin protein (Abcam ab95502) (human) (UniProt Q16595)", "assay": "Simoa sandwich 2-step; capture Ab-3; frataxin 2.06 pg/mL"}, "[25]": {"biological_target": "Recombinant, his tagged full length human frataxin protein (Abcam ab95502) (human) (UniProt Q16595)", "assay": "Simoa sandwich 3-step; capture Ab-2; frataxin 100 pg/mL"}, "[26]": {"biological_target": "Recombinant, his tagged full length human frataxin protein (Abcam ab95502) (human) (UniProt Q16595)", "assay": "Simoa sandwich 3-step; capture Ab-4"}, "[27]": {"biological_target": "Recombinant, his tagged full length human frataxin protein (Abcam ab95502) (human) (UniProt Q16595)", "assay": "Simoa sandwich 3-step; capture Ab-3; frataxin 1000 pg/mL"}, "[28]": {"biological_target": "Recombinant, his tagged full length human frataxin protein (Abcam ab95502) (human) (UniProt Q16595)", "assay": "Simoa sandwich 3-step; capture Ab-4; frataxin 1000 pg/mL"}, "[29]": {"biological_target": "Recombinant, his tagged full length human frataxin protein (Abcam ab95502) (human) (UniProt Q16595)", "assay": "Simoa sandwich 3-step; capture Ab-5; frataxin 100 pg/mL"}, "[30]": {"biological_target": "Recombinant, his tagged full length human frataxin protein (Abcam ab95502) (human) (UniProt Q16595)", "assay": "Simoa sandwich 3-step; capture Ab-3", "remark": "listed apart in the source"}, "[31]": {"biological_target": "Recombinant, his tagged full length human frataxin protein (Abcam ab95502) (human) (UniProt Q16595)", "assay": "Simoa sandwich 2-step; capture Ab-3; frataxin 100 pg/mL"}, "[32]": {"biological_target": "Recombinant, his tagged full length human frataxin protein (Abcam ab95502) (human) (UniProt Q16595)", "assay": "Simoa sandwich 3-step; capture Ab-3; frataxin 1000 pg/mL", "remark": "listed apart in the source"}},
  "data": [
    {"substance": "Ab-4, mouse monoclonal [17A11] to Frataxin (Abcam ab113691) (antibody)", "values": [
      {"measurement": "Ave AEB", "setting": "[1]", "result": 32.9, "unit": "AEB"},
      {"measurement": "S/B", "setting": "[1]", "result": 183},
      {"measurement": "LOD", "setting": "[2]", "result": 0.44, "unit": "pg/mL"},
      {"measurement": "Ave AEB", "setting": "[3]", "result": 7.32, "unit": "AEB"},
      {"measurement": "S/B", "setting": "[3]", "result": 40.7},
      {"measurement": "Ave AEB", "setting": "[4]", "result": 29.7, "unit": "AEB"},
      {"measurement": "S/B", "setting": "[4]", "result": 394},
      {"measurement": "LOD", "setting": "[5]", "result": 5.01, "unit": "pg/mL"},
      {"measurement": "Ave AEB", "setting": "[6]", "result": 30.9, "unit": "AEB"},
      {"measurement": "S/B", "setting": "[6]", "result": 140},
      {"measurement": "Ave AEB", "setting": "[7]", "result": 1.34, "unit": "AEB"},
      {"measurement": "S/B", "setting": "[7]", "result": 16.8},
      {"measurement": "Ave AEB", "setting": "[8]", "result": 23.7, "unit": "AEB"},
      {"measurement": "S/B", "setting": "[8]", "result": 206},
      {"measurement": "Ave AEB", "setting": "[9]", "result": 11.1, "unit": "AEB"},
      {"measurement": "S/B", "setting": "[9]", "result": 97},
      {"measurement": "Ave AEB", "setting": "[10]", "result": 1.31, "unit": "AEB"},
      {"measurement": "S/B", "setting": "[10]", "result": 11.4},
      {"measurement": "Ave AEB", "setting": "[11]", "result": 8.74, "unit": "AEB"},
      {"measurement": "S/B", "setting": "[11]", "result": 39.6},
      {"measurement": "Ave AEB", "setting": "[12]", "result": 0.64, "unit": "AEB"},
      {"measurement": "S/B", "setting": "[12]", "result": 2.9},
      {"measurement": "Ave AEB", "setting": "[13]", "result": 0.82, "unit": "AEB"},
      {"measurement": "S/B", "setting": "[13]", "result": 35.6},
      {"measurement": "Ave AEB", "setting": "[14]", "result": 18.6, "unit": "AEB"},
      {"measurement": "S/B", "setting": "[14]", "result": 45.4},
      {"measurement": "Ave AEB", "setting": "[15]", "result": 0.0213, "unit": "AEB"},
      {"measurement": "S/B", "setting": "[15]", "result": 0.93},
      {"measurement": "LOD", "setting": "[16]", "result": 1.59, "unit": "pg/mL"},
      {"measurement": "LOD", "setting": "[17]", "result": 23.9, "unit": "pg/mL"},
      {"measurement": "Ave AEB", "setting": "[18]", "result": 3.75, "unit": "AEB"},
      {"measurement": "S/B", "setting": "[18]", "result": 32.6},
      {"measurement": "Ave AEB", "setting": "[19]", "result": 0.56, "unit": "AEB"},
      {"measurement": "S/B", "setting": "[19]", "result": 4.87},
      {"measurement": "LOD", "setting": "[20]", "result": 6.44, "unit": "pg/mL"},
      {"measurement": "LOD", "setting": "[21]", "result": 0.36, "unit": "pg/mL"},
      {"measurement": "Ave AEB", "setting": "[22]", "result": 0.68, "unit": "AEB"},
      {"measurement": "S/B", "setting": "[22]", "result": 11.7},
      {"measurement": "Ave AEB", "setting": "[23]", "result": 0.157, "unit": "AEB"},
      {"measurement": "S/B", "setting": "[23]", "result": 1.36},
      {"measurement": "Ave AEB", "setting": "[24]", "result": 0.259, "unit": "AEB"},
      {"measurement": "S/B", "setting": "[24]", "result": 2.25},
      {"measurement": "Ave AEB", "setting": "[25]", "result": 1.02, "unit": "AEB"},
      {"measurement": "S/B", "setting": "[25]", "result": 5.67},
      {"measurement": "LOD", "setting": "[26]", "result": 358, "unit": "pg/mL"},
      {"measurement": "Ave AEB", "setting": "[27]", "result": 12.8, "unit": "AEB"},
      {"measurement": "S/B", "setting": "[27]", "result": 160},
      {"measurement": "Ave AEB", "setting": "[28]", "result": 0.0589, "unit": "AEB"},
      {"measurement": "S/B", "setting": "[28]", "result": 2.55},
      {"measurement": "Ave AEB", "setting": "[29]", "result": 2.02, "unit": "AEB"},
      {"measurement": "S/B", "setting": "[29]", "result": 4.93},
      {"measurement": "LOD", "setting": "[30]", "result": 2.41, "unit": "pg/mL"},
      {"measurement": "Ave AEB", "setting": "[31]", "result": 5.1, "unit": "AEB"},
      {"measurement": "S/B", "setting": "[31]", "result": 67.6},
      {"measurement": "Ave AEB", "setting": "[32]", "result": 8.02, "unit": "AEB"},
      {"measurement": "S/B", "setting": "[32]", "result": 138}
    ]}
  ]
}
